Measurements taken from PMC7112767.

Molecular target: IL-1β mutant with pBpa at position 63 (Homo sapiens)
Assay: cross-linking

## monoclonal phage displaying the scFv of canakinumab
  UV output (CFU): 6400 CFU
  UV/non-UV output ratio: 3.8
